Reference: patent publication US20240247042A1, “GLUCAGON LIKE PEPTIDE COMPOUNDS” (Novartis AG, priority 2021, published 2024)

What was measured:
[1] = biological target: cynomolgus GLP1 receptor (cynoGLP1R), on HEK293-cynoGLP1R F6 cells (cynomolgus) (UniProt F8V479); assay: cell-based or functional assay
[2] = Tolerability assessment: emesis and FI in obese monkeys; format: in vivo; settings: single dose s.c. 30 μg/kg
Excerpt: Efficacy was defined as a reduction in FI and BW. Tolerability, assessed as reduced and/or absence of emesis and retained interest in a selection of fruits and vegetables and peanuts as treats.

[3] = Acute food intake study in DIO mice; format: in vivo, C57BL/6 mice; settings: single s.c., 120 μg/kg
Description: Males 24-30 weeks of age were used in the studies. Animals were housed one per cage in a normal light cycle (6:00 am-6:00 pm lights on, otherwise lights off) room, under an approved IACUC protocol. […] At the start of the study, food weight was recorded and animals were subcutaneously dosed with a test compound.

[4] = Efficacy study: body weight loss in DIO mice; format: in vivo, C57BL/6 mice; settings: s.c., 120 μg/kg QD, Day 30
Description: Males 24-30 weeks of age were used in the studies (n=7/group). Animals were housed one per cage in a normal light cycle room, under an approved IACUC protocol. […] Compound(s) or vehicle were given QD or when indicated 03D (every 3 days). […] Body weight and food intake were measured daily.

[5] = biological target: T1, mouse GLP1 receptor (mGLP1R) (Mus musculus, UniProt O35659); assay: Mouse GLP1R cAMP agonist assay; format: cell-based; settings: percent of GLP1(7-36) EC100
T1 construct: host or cells: HEK293T CRE-Luc (called HEK293), clone C3
T1 sequence (O35659 22-463): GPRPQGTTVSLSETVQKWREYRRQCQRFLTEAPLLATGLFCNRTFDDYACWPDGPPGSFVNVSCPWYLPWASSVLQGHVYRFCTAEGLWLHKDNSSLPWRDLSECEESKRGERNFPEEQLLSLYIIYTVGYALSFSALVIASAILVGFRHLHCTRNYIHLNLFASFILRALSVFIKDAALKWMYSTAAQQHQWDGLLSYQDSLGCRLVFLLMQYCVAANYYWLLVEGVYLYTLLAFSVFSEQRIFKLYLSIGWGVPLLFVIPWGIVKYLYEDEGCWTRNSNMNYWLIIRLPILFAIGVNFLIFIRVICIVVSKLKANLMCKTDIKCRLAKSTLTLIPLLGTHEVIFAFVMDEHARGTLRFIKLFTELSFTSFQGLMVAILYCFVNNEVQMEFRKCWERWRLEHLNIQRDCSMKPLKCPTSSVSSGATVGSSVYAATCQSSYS
Description: Compounds described herein were tested in the following cellular assays that measures the intracellular cAMP concentration. The cAMP is generated by the activation of GLP1R. EC50 is defined as the concentration of the compound that leads to half of the maximum response (after baseline correction).
The following day, cells were transfected as follows. The DNA complex was prepared as 0.020 μg/μL by adding 37 μg of plasmid DNA encoding mouse GLP1R cDNA (GeneCopoeia, cat #EX-Mm23901-M67; NCBI Reference Sequence: NM_021332.2) in 1758 μL Opti-MEM solution. Then, 112 μL of FuGENE® HD reagent were added to that by mixing carefully. After 5-10 min incubation at RT, 850 μL of DNA complex per well were added to the cells, and mixed thoroughly.

human GLP1R [6] = biological target: T2, human GLP1R (Homo sapiens, UniProt P43220); assay: Human GLP1R DERET internalization assay; format: cell-based
human GLP1R [7] = biological target: T2, human GLP1R; assay: Human GLP1R DERET recycling assay; format: cell-based
Description: The extent to which agonists internalize or allow recycling of the human GLP1R was determined based on an optimized version of a RealTime FRET-based ‘DERET’ (Dissociation Enhanced Resonance Energy Transfer) assay. The technology relies on labeling of the SNAP-tagged GPCR with a SNAP-Lumi-Terbium (donor fluorophore, Cisbio, cat #SSNPTBD). The compounds are incubated with the cells over-expressing the GPCR of interest in the presence of an excess of fluorescein (acceptor fluorophore). When the GPCR is on the cell surface, the donor signal is quenched by the acceptor and the donor/acceptor ratio is low. As the GPCR internalizes, the donor signal is no longer quenched, and the acceptor is no longer excited so the donor/acceptor ratio increases. The addition of an excess of antagonist blocks further receptor internalization, allowing the receptor to recycle back to the membrane leading to a subsequent reduction in the donor/acceptor ratio. […] To generate triplicate dose response curves, compounds were serially diluted 3-fold in assay buffer, then added to the cell assay plate to a final volume of 40 μL and final top concentrations starting at 3 μM or less (depending on the case). […] EC0 wells with buffer only were also included. The plate FRET fluorescence was measured immediately using a Perkin Elmer Envision with LANCE/DELFIA D400 single mirror, excitation filter X320, and emission filters M615_203 (donor emission) and M515 (acceptor emission), and then measured every 30 min. […] Plates were kept at 37° C. between reads. Data was expressed as the ratio of donor/acceptor emissions using Microsoft Excel and plotted in GraphPad Prism.
Using this model, we determined a T1/2 rate at which the receptor recycled back to the membrane. We also determined a maximum percentage of receptor recycled as a proportion of the amount internalized initially.
The lower the internalization rate and the faster the receptor recycling rate the more the receptor is retained at the membrane.

[8] = biological target: T3, mouse GLP1 receptor (mGLP1R), on HEK293-mGLP1R CRE-Luc (Clone C3) cells (mouse, UniProt O35659 22-463); assay: cell-based or functional assay
T3 sequence (looked up): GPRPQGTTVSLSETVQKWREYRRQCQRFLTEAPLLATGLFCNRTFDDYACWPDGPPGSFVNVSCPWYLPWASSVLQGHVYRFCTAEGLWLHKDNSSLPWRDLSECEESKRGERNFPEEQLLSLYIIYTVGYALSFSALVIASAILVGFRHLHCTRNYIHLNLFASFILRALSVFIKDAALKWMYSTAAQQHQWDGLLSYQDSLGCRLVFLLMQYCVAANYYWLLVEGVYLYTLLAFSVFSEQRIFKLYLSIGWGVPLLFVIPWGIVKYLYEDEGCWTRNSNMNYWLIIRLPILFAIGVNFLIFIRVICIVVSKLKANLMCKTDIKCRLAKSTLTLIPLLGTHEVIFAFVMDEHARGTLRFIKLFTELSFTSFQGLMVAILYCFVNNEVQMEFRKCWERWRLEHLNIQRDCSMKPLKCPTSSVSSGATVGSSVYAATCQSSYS

[9] = biological target: T4, human GLP1 receptor (hGLP1R) fused with a SNAP tag, on HEK293-SNAP-hGLP1R-GloSensor cells (human, UniProt P43220 24-463); assay: cell-based or functional assay
[10] = biological target: human GLP1R (hGLP1R) with a Prolink tag, on CHO-hGLP1R-β-arrestin cells (human, UniProt P43220 24-463); assay: cell-based or functional assay
[11] = biological target: T4, human GLP1 receptor (hGLP1R) fused with …; assay: cell-based or functional assay; remark: listed apart in the source
[12] = biological target: cynomolgus GLP1 receptor (cynoGLP1R), on HEK293-cynoGLP1R F6 cells (cynomolgus, UniProt F8V479 24-463); assay: cell-based or functional assay
[13] = biological target: T4, human GLP1 receptor (hGLP1R) fused with …; assay: cell-based or functional assay; remark: listed apart in the source

T2 sequence (P43220 24-463): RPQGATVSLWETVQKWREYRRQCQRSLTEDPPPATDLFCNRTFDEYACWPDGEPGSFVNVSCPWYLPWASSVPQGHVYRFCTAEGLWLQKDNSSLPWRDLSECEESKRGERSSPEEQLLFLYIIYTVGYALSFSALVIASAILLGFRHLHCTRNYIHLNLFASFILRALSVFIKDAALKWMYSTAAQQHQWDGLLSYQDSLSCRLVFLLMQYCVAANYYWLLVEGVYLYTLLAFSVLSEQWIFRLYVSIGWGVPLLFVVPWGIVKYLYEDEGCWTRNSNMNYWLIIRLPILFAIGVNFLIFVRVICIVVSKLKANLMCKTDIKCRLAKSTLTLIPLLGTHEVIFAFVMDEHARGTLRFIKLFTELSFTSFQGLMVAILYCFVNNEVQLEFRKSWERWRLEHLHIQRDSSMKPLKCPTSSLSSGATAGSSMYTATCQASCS

GLP1(7-36) peptide (from UniProt P01275 98-127) (ligand)
cynoGLP1R cAMP assay (HTRF): EC50 mean [1]: 0.0217 nM | cynoGLP1R cAMP assay (HTRF): Emax mean, % of GLP1(7-36) [1]: 100%

semaglutide
FI reduction observed [2]: Yes | FI @ 24 h [3]: −86 ± 1 % baseline | Weight loss [4]: −17.8 ± 1.2 % baseline | Emax mean [5]: 106% | Emax mean (human GLP1R [6]): 91% | Receptor recycled mean (human GLP1R [7]): 64% | T1/2 mean (human GLP1R [7]): 1.677 h

semaglutide acetate salt (peptide)
cynoGLP1R cAMP assay (HTRF): EC50 mean [1]: 0.0491 nM

B1: Compound 6 (peptide)
peptide: HXEGTFTSDVSSYLEGQAAKEFIAWLVRGRG
modifications: Aib at position 8 (GLP-1 numbering); side-chain NH of the Lys residue acylated, via a PEG24 linker, with the 11-carbamoyl-henicosane-1,11,21-tricarboxylic acid moiety (from NHS ester Intermediate 29)
mGLP1R cAMP assay (HTRF): EC50 mean [8]: 0.034 nM | hGLP1R cAMP assay (GloSensor): EC50 mean [9]: 0.00573 nM | β-arrestin recruitment (PathHunter): EC50 mean [10]: 70 nM

B2: Compound 2: Diastereomer 1 (peptide)
peptide: HXEGTFTSDVSSYLEGQAAKEFIAWLVRGRG
modifications: Aib at position 8 (GLP-1 numbering); side-chain NH of the Lys residue acylated, via a PEG24 linker, with (S)-2-undecyltridecanedioic acid (from NHS ester Intermediate 15A, S-enantiomer)
receptor internalization (DERET): EC50 mean [11]: 331 nM | β-arrestin recruitment (PathHunter): EC50 mean [10]: 133 nM

B3: Compound 8 (peptide)
peptide: HXEGTFTSDVSSYLEGQAAKEFIAWLVRGRG
modifications: Aib at position 8 (GLP-1 numbering); side-chain NH of the Lys residue acylated, via a PEG24 linker, with the 14-carbamoyl-heptacosane-1,14,27-tricarboxylic acid moiety (from NHS ester Intermediate 43)
hGLP1R cAMP assay (GloSensor): EC50 mean [9]: 0.105 nM

B4: Compound 3: Diastereomer 2 (peptide)
peptide: HXEGTFTSDVSSYLEGQAAKEFIAWLVRGRG
modifications: Aib at position 8 (GLP-1 numbering); side-chain NH of the Lys residue acylated, via a PEG24 linker, with (R)-2-undecyltridecanedioic acid (from NHS ester Intermediate 15B, R-enantiomer)
receptor internalization (DERET): EC50 mean [11]: 372 nM

B5: Compound 4 (peptide)
peptide: HXEGTFTSDVSSYLEGQAAKEFIAWLVRGRG
modifications: Aib at position 8 (GLP-1 numbering); side-chain NH of the Lys residue acylated, via a PEG8 linker, with 2-undecyltridecanedioic acid (from NHS ester Intermediate 19)
mGLP1R cAMP assay (HTRF): EC50 mean [8]: 0.428 nM | β-arrestin recruitment (PathHunter): EC50 mean [10]: 235 nM

B6: Compound 7 (peptide)
peptide: HXEGTFTSDVSSYLEGQAAKEFIAWLVRGRG
modifications: Aib at position 8 (GLP-1 numbering); side-chain NH of the Lys residue acylated, via a PEG24 linker, with the 12-carbamoyl-tricosane-1,12,23-tricarboxylic acid moiety (from NHS ester Intermediate 36)
receptor internalization (DERET): EC50 mean [11]: 367 nM | β-arrestin recruitment (PathHunter): EC50 mean [10]: 178 nM

B7: Compound 1 (Diastereomeric Mixture) (peptide)
peptide: HXEGTFTSDVSSYLEGQAAKEFIAWLVRGRG
modifications: Aib at position 8 (GLP-1 numbering); side-chain NH of the Lys residue acylated, via a PEG24 linker, with 2-undecyltridecanedioic acid (from NHS ester Intermediate 6); diastereomeric mixture at the quaternary carbon of the fatty acid
hGLP1R cAMP assay (GloSensor): Emax mean, % of GLP1(7-36) [9]: 105% | β-arrestin recruitment (PathHunter): EC50 mean [10]: 192 nM

B8: Compound 9 (peptide)
peptide: HXEGTFTSDVSSYLEGQAAKEFIAWLVRGRG
modifications: Aib at position 8 (GLP-1 numbering); side-chain NH of the Lys residue acylated, via a PEG24 linker, with the 15-carbamoyl-nonacosane-1,15,29-tricarboxylic acid moiety (from NHS ester Intermediate 50)
mGLP1R cAMP assay (HTRF): EC50 mean [8]: 0.686 nM | receptor internalization (DERET): Emax mean, % of GLP1(7-36) [11]: 22% | β-arrestin recruitment (PathHunter): EC50 mean [10]: > 2000 nM | β-arrestin recruitment (PathHunter): Emax mean, % of GLP1(7-36) [10]: 37%

B9: Compound 5 (peptide)
peptide: HXEGTFTSDVSSYLEGQAAKEFIAWLVRGRG
modifications: Aib at position 8 (GLP-1 numbering); side-chain NH of the Lys residue acylated, via a PEG2 linker, with 2-undecyltridecanedioic acid (from NHS ester Intermediate 22)
cynoGLP1R cAMP assay (HTRF): EC50 mean [12]: 0.577 nM | cynoGLP1R cAMP assay (HTRF): Emax mean, % of GLP1(7-36) [12]: 103% | receptor recycling (DERET, after Exendin 9-39): T1/2 mean [13]: 2.25 h
